{"source": "paper PMC11260447", "about": "“OptoLacI: optogenetically engineered lactose operon repressor LacI responsive to light instead of IPTG” (Nucleic Acids Research, 2024)", "proteins": {"B1": {"name": "OptoLacI^L (LacI^(W220F, 311-LOV2)) (other, E. coli | Avena sativa, UniProt P03023 1-311, looked up)", "chain": "MKPVTLYDVAEYAGVSYQTVSRVVNQASHVSAKTREKVEAAMAELNYIPNRVAQQLAGKQSLLIGVATSSLALHAPSQIVAAIKSRADQLGASVVVSMVERSGVEACKAAVHNLLAQRVSGLIINYPLDDQDAIAVEAACTNVPALFLDVSDQTPINSIIFSHEDGTRLGVEHLVALGHQQIALLAGPLSSVSARLRLAGWHKYLTRNQIQPIAEREGDFSAMSGFQQTMQMLNEGIVPTAMLVANDQMALGAMRAITESGLRVGADISVVGYDDTEDSSCYIPPLTTIKQDFRLLGQTSVDRLLQLSQGQLERIEKNFVITDPRLPDNPIIFASDSFLQLTEYSREEILGRNCRFLQGPETDRATVRKIRDAIDNQTEVTVQLINYTKSGKKFWNLFHLQPMRDQKGDVQYFIGVQLDGTEHVRDAAEREGVMLIKKTAENIDEAAAVKGNQLLPVSLVKRKTTLAPNTQTASPRALADSLMQLARQVSRLESGQ", "notes": "LOV2 domain of Avena sativa phototropin 1 (AsLOV2), residues 408-543; source: E. coli BL21 (DE3), plasmid pML364, purified (Ni-NTA twice, size exclusion chromatography)"}}, "target": "the molecule itself", "assay": "SEC; purified protein incubated 1 hour in the dark, then Superdex 200 Increase 10/300 GL under dark condition; 20 mM Hepes pH 7.5, 200 mM NaCl", "data": [{"protein": "B1", "values": [{"measurement": "binding result", "value": "binds"}]}]}
